System: MBP-rAtCHE (Arabidopsis thaliana (homoeolog cloned from resynthesized A. thaliana x A. arenosa allotetraploid))
Test: EMSA
Settings: reference for normalization; 25 mM HEPES pH 7.5, 2.5 mM DTT, 75 mM KCl, 10% glycerol, 1.25 ng poly-dIdC, 10 nM (~15 fmol) DNA, on ice 20 min; 5% native PAGE

Substance: AtCCA1p
- binding signal (fold (reference for rAaCHE)): 1

Reference: article PMC5366859
